Results on 35 molecules are retold here after article PMC10786891, “Massively parallel profiling of RNA-targeting CRISPR-Cas13d”.

B1: target 2 MT 5'PFS GGA 3'PFS AAG (mixed)
RNA 1: CACCCGUGCAAAAUUGCAGGGGUCUAAAACCUUCUCCAAAUUGUUUCAUCCU
RNA 2: GGGAAUGGAUCCACAUCUACGAAUUCGGAAGGAUGAAACAAUUUGGAGAAGAAGAGAUCGGAAGAGCACACGU
B2: target 2 MT 5'PFS AAG 3'PFS UCC (mixed)
RNA 1: B1 RNA 1
RNA 2: B1 RNA 2 with G27A, G28A, A29G, A52U, A53C, G54C
B3: target 2 MT 5'PFS GAU 3'PFS AUC (mixed)
RNA 1: B1 RNA 1
RNA 2: B1 RNA 2 with G28A, A29U, A53U, G54C
B4: target 2 MT 5'PFS UAA 3'PFS AUG (mixed)
RNA 1: B1 RNA 1
RNA 2: B1 RNA 2 with G27U, G28A, A53U
B5: target 2 MT 5'PFS AAC 3'PFS CAU (mixed)
RNA 1: B1 RNA 1
RNA 2: B1 RNA 2 with G27A, G28A, A29C, A52C, G54U
B6: target 2 MT 5'PFS AGC 3'PFS CUA (mixed)
RNA 1: B1 RNA 1
RNA 2: B1 RNA 2 with G27A, A29C, A52C, A53U, G54A
B7: target 2 MT 5'PFS AAC 3'PFS CAC (mixed)
RNA 1: B1 RNA 1
RNA 2: B1 RNA 2 with G27A, G28A, A29C, A52C, G54C
B8: target 2 MT 5'PFS UAC 3'PFS CUA (mixed)
RNA 1: B1 RNA 1
RNA 2: B1 RNA 2 with G27U, G28A, A29C, A52C, A53U, G54A
B9: target 2 MT 5'PFS GAU 3'PFS AUA (mixed)
RNA 1: B1 RNA 1
RNA 2: B1 RNA 2 with G28A, A29U, A53U, G54A
B10: target 2 MT 5'PFS UAA 3'PFS AUU (mixed)
RNA 1: B1 RNA 1
RNA 2: B1 RNA 2 with G27U, G28A, A53U, G54U
B11: target 2 MT 5'PFS AAC 3'PFS CAA (mixed)
RNA 1: B1 RNA 1
RNA 2: B1 RNA 2 with G27A, G28A, A29C, A52C, G54A
B12: target 2 MT 5'PFS GGC 3'PFS AGU (mixed)
RNA 1: B1 RNA 1
RNA 2: B1 RNA 2 with A29C, A53G, G54U
B13: target 2 MT 5'PFS UAC 3'PFS CUC (mixed)
RNA 1: B1 RNA 1
RNA 2: B1 RNA 2 with G27U, G28A, A29C, A52C, A53U, G54C
B14: target 2 MT 5'PFS GCU 3'PFS AAC (mixed)
RNA 1: B1 RNA 1
RNA 2: B1 RNA 2 with G28C, A29U, G54C
B15: target 2 MT 5'PFS GCU 3'PFS AAG (mixed)
RNA 1: B1 RNA 1
RNA 2: B1 RNA 2 with G28C, A29U
B16: target 2 MT 5'PFS UAA 3'PFS AUA (mixed)
RNA 1: B1 RNA 1
RNA 2: B1 RNA 2 with G27U, G28A, A53U, G54A
B17: target 2 MT 5'PFS UAC 3'PFS CUU (mixed)
RNA 1: B1 RNA 1
RNA 2: B1 RNA 2 with G27U, G28A, A29C, A52C, A53U, G54U
B18: target 2 MT 5'PFS GCU 3'PFS AAA (mixed)
RNA 1: B1 RNA 1
RNA 2: B1 RNA 2 with G28C, A29U, G54A
B19: target 2 MT 5'PFS UUU 3'PFS CCU (mixed)
RNA 1: B1 RNA 1
RNA 2: B1 RNA 2 with G27U, G28U, A29U, A52C, A53C, G54U
B20: target 2 MT 5'PFS AAC 3'PFS CAG (mixed)
RNA 1: B1 RNA 1
RNA 2: B1 RNA 2 with G27A, G28A, A29C, A52C
B21: target 2 MT 5'PFS AAU 3'PFS CCG (mixed)
RNA 1: B1 RNA 1
RNA 2: B1 RNA 2 with G27A, G28A, A29U, A52C, A53C
B22: target 2 MT 5'PFS AGC 3'PFS CUC (mixed)
RNA 1: B1 RNA 1
RNA 2: B1 RNA 2 with G27A, A29C, A52C, A53U, G54C
B23: target 2 MT 5'PFS AGC 3'PFS CUU (mixed)
RNA 1: B1 RNA 1
RNA 2: B1 RNA 2 with G27A, A29C, A52C, A53U, G54U
B24: target 2 MT 5'PFS GUG 3'PFS UAG (mixed)
RNA 1: B1 RNA 1
RNA 2: B1 RNA 2 with G28U, A29G, A52U
B25: target 2 MT 5'PFS GAU 3'PFS AUG (mixed)
RNA 1: B1 RNA 1
RNA 2: B1 RNA 2 with G28A, A29U, A53U
B26: target 2 MT 5'PFS AAU 3'PFS CUG (mixed)
RNA 1: B1 RNA 1
RNA 2: B1 RNA 2 with G27A, G28A, A29U, A52C, A53U
B27: target 2 MT 5'PFS AAU 3'PFS CUC (mixed)
RNA 1: B1 RNA 1
RNA 2: B1 RNA 2 with G27A, G28A, A29U, A52C, A53U, G54C
B28: target 2 MT 5'PFS UUU 3'PFS CCA (mixed)
RNA 1: B1 RNA 1
RNA 2: B1 RNA 2 with G27U, G28U, A29U, A52C, A53C, G54A
B29: target 2 MT 5'PFS AGC 3'PFS CUG (mixed)
RNA 1: B1 RNA 1
RNA 2: B1 RNA 2 with G27A, A29C, A52C, A53U
B30: target 2 MT 5'PFS UAA 3'PFS AUC (mixed)
RNA 1: B1 RNA 1
RNA 2: B1 RNA 2 with G27U, G28A, A53U, G54C
B31: target 2 MT 5'PFS UAC 3'PFS CUG (mixed)
RNA 1: B1 RNA 1
RNA 2: B1 RNA 2 with G27U, G28A, A29C, A52C, A53U
B32: target 2 MT 5'PFS AAU 3'PFS CUU (mixed)
RNA 1: B1 RNA 1
RNA 2: B1 RNA 2 with G27A, G28A, A29U, A52C, A53U, G54U
B33: target 1 insU 3' of 18,insG 3' of 8 (mixed)
RNA 1: CACCCGUGCAAAAAUGCAGGGGUCUAAAACUGAGCGGAUAACCUCUCUAUGG
RNA 2: GGGAAUGGAUCCACAUCUACGAAUUCGUACCAUAUGAGAGGUUAUGCCGCUCACCGAGAUCGGAAGAGCACACGU
B34: target 1 insC 3' of 20,insG 3' of 6 (mixed)
RNA 1: B33 RNA 1
RNA 2: B33 RNA 2 with U33C, A34U, U35A, G46C, C48G
B35: target 1 U3G,U8A (mixed)
RNA 1: B33 RNA 1
RNA 2: GGGAAUGGAUCCACAUCUACGAAUUCGUACCAUAGAGAGGUUAACCGCGCACCGAGAUCGGAAGAGCACACGU

Positions count from the first letter of the chain named. Numbers in names are those of the source.

This data set concerns the target T1, EsCas13d, nuclease-dead (Eubacterium siraeum, UniProt B0MS50, R295A;H300A;R849A;H854A).
T1 sequence: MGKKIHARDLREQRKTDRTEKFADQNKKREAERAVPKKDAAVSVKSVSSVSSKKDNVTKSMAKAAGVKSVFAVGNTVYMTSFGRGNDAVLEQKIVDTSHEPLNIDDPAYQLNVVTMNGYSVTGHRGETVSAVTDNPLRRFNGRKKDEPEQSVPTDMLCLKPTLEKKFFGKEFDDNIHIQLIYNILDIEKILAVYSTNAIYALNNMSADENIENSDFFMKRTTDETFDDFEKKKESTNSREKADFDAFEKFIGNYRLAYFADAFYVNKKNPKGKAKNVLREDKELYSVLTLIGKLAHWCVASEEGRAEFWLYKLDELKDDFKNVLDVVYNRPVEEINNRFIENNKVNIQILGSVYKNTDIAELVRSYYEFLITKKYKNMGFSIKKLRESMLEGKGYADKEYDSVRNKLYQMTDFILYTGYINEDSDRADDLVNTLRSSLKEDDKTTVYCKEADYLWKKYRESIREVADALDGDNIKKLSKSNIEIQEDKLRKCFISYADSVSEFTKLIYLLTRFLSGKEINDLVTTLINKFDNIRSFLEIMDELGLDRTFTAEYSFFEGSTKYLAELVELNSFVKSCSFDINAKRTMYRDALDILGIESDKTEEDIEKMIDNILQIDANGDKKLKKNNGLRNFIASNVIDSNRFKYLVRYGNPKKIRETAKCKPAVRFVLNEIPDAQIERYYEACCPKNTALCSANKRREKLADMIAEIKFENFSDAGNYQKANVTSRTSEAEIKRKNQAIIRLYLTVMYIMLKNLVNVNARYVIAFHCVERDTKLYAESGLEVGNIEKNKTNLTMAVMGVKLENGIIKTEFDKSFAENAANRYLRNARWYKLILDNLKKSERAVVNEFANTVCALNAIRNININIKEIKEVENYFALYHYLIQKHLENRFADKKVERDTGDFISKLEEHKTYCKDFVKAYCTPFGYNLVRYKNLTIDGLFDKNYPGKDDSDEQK
The data set can be described thus: crRNA (strand 1, pre-loaded); Mg2+; 40 mM Tris-HCl pH 7.5, 150 mM NaCl, 6 mM MgCl2, 1 mM DTT, 0.1% Tween-20, 0.2 mg/ml BSA; 25 C; 10 min per concentration, then washed. Particulars: tags: His6-TwinStrep-SUMO cleaved; N-terminal SNAP kept (SNAP-Surface 488); label: 3' end held by stalled T7 RNA polymerase.
Molecule B1 returned a Kd of 9.3 ± 1.4 nM.
Then B2, with 16.3 ± 2.5 nM.
Then B3, with 10.5 ± 1.8 nM.
Take B4: binding was characterised by a dissociation constant (Kd) of 5.6 ± 1.5 nM.
With B5, the Kd is ~8 nM.
In the case of B6, the Kd turned out to be 8.6 ± 1.5 nM.
Then B7, with 6.2 ± 2 nM; and B8, with 6.8 ± 1 nM; and B9, with 14 ± 6 nM.
The figure for B10 is 3.9 ± 0.6 nM; for B11 it is ~7 nM; for B12 it is 11.5 ± 0.8 nM.
In turn, B13 displayed a Kd of 16 ± 6 nM.
The figure for B14 is 10.1 ± 1.9 nM; for B15 it is 11.3 ± 2 nM; for B16 it is 4.3 ± 0.6 nM.
The figure for B17 is 7.2 ± 1.1 nM.
B18 returned a Kd of 5.9 ± 1 nM.
The figure for B19 is 52 ± 15 nM; for B20 it is 3.6 ± 0.6 nM; for B21 it is 5.9 ± 0.7 nM.
Then B22, with 11.5 ± 2.8 nM; and B23, with 11.7 ± 1.5 nM; and B24, with 13.3 ± 1.3 nM.
On to B25, for which the Kd was 11.8 ± 1.1 nM.
The figure for B26 is 4.2 ± 0.5 nM; for B27 it is 7.3 ± 0.8 nM; for B28 it is 18.1 ± 2.5 nM.
For B29, the affinity, expressed as Kd, was 16.5 ± 3.4 nM.
B30 returned a dissociation constant Kd of 5.1 ± 0.5 nM.
The molecule B31 gave a Kd of 10.4 ± 1.7 nM.
The figure for B32 is 9.4 ± 2 nM; for B33 it is 41 ± 4 nM; for B34 it is 7.5 ± 0.4 nM.
Molecule B35 displayed a Kd of 12 ± 0.6 nM.

Usually Kd stands for a measure of binding affinity in units of concentration.
